B1: LATS1 PPxY2 peptide mutant Q to A (peptide)
peptide: NYAGPPPPYPKH
notes: LATS1 PPxY2 peptide aa 551-562 with the Q at P1-3 changed to A; also called PPxY2m; PPxY2 Q→A; source: synthetic peptide, bought: GL BioChem
B2: YAP2 WW12 (both WW domains; aa 163-266) (domain or fragment, human, UniProt P46937-2 163-266, looked up)
chain: SSFEIPDDVPLPAGWEMAKTSSGQRYFLNHIDQTTTWQDPRKAMLSQMNVTAPTSPPVQQNMMNSASGPLPDGWEQAMTQDGEIYYINHKNKTTSWLDPRLDPR
notes: YES-associated protein, isoform YAP2 (YAP1-2), human, both WW domains, aa 163-266; cloned into pGEX-6P-1; 15N-labelled in one of the NMR titrations; source: also co-expressed with PY12 and co-purified
B3: LATS1 PPxY1 peptide mutant R to A (peptide)
peptide: NAQPPPPYPLTA
notes: also called PPxY1m; PPxY1R→A; source: synthetic peptide, bought: GL BioChem

Tests used:
[1] = target: T1, YAP2 WW1 domain (aa 163-206) (human, UniProt P46937-2 163-206); experiment: ITC; protein 20 to 70 uM titrated against peptide 0.5 to 1.8 mM, 25°C, 20 mM Tris-HCl pH 7.0, 100 mM NaCl; single ligand binding site model; details: both partners purified
T1 construct: YES-associated protein, isoform YAP2 (YAP1-2, two WW domains), human, first WW domain, aa 163-206; cloned into pGEX-6P-1

[2] = target: T2, LATS1 PY12 (both PPxY motifs; aa 361-567) (UniProt O95835 361-567); experiment: ITC; WW12 vs PY12; 20 mM Tris-HCl pH 7.0, 100 mM NaCl, 3% glycerol, 2 mM DTT, 2 mM EDTA; single ligand binding site model; details: both partners purified
T2 construct: LATS1, region with both PPxY motifs, aa 361-567; cloned into pACYC; 15N-labelled in one of the NMR titrations; source: E. coli BL21 (DE3), purified
T2 sequence (looked up): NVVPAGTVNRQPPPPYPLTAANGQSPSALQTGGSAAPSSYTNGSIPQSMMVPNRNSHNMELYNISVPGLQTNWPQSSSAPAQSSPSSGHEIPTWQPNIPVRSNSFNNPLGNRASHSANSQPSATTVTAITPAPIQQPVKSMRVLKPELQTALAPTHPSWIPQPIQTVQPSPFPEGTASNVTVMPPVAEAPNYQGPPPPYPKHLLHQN

Binder | Kd [1] | Kd [2]
B1 | 4.4 µM | –
B2 | – | 9.6 µM
B3 | 14 µM | –

Source: paper PMC5814282, “Biophysical studies and NMR structure of YAP2 WW domain - LATS1 PPxY motif complexes reveal the basis of their interaction” (Oncotarget, 2018)
